Experimental data published in patent US20100266695A1 (University of California, published 2010).
Where no end group is shown, it is not given here.

Target: αvβ3 integrin on HeLa cells (human, UniProt P06756 31-1048; P05106 27-788)
Experiment: cell-based or functional assay

Sequence of αvβ3 integrin on HeLa cells (P06756 31-1048, chain 1 of 2): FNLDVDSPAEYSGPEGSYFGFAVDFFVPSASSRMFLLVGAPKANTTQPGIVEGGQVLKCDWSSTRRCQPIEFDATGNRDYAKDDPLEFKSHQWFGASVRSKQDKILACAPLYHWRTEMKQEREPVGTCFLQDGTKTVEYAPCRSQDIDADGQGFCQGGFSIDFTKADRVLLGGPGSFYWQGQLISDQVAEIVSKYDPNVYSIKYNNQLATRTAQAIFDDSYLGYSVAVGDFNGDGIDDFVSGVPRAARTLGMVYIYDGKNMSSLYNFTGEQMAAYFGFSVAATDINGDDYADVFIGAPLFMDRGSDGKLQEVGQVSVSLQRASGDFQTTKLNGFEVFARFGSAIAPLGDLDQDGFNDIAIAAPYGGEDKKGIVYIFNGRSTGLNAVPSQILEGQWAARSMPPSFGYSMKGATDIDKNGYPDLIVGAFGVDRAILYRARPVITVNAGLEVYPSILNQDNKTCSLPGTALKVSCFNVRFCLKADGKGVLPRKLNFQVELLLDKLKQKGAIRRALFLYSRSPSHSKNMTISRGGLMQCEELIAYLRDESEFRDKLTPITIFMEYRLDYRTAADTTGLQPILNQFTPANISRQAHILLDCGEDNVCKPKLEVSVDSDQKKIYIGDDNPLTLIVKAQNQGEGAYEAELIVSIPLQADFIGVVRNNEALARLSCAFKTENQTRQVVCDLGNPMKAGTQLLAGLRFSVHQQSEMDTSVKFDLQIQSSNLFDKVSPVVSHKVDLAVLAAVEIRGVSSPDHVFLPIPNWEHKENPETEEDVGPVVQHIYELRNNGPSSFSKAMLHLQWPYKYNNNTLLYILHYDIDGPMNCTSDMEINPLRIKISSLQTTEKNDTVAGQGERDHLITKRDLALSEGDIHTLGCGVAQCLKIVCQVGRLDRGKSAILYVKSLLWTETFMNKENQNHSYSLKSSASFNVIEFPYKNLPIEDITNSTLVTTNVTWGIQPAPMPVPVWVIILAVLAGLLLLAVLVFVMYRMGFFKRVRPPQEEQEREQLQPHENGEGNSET
Sequence of αvβ3 integrin on HeLa cells (P05106 27-788, chain 2 of 2): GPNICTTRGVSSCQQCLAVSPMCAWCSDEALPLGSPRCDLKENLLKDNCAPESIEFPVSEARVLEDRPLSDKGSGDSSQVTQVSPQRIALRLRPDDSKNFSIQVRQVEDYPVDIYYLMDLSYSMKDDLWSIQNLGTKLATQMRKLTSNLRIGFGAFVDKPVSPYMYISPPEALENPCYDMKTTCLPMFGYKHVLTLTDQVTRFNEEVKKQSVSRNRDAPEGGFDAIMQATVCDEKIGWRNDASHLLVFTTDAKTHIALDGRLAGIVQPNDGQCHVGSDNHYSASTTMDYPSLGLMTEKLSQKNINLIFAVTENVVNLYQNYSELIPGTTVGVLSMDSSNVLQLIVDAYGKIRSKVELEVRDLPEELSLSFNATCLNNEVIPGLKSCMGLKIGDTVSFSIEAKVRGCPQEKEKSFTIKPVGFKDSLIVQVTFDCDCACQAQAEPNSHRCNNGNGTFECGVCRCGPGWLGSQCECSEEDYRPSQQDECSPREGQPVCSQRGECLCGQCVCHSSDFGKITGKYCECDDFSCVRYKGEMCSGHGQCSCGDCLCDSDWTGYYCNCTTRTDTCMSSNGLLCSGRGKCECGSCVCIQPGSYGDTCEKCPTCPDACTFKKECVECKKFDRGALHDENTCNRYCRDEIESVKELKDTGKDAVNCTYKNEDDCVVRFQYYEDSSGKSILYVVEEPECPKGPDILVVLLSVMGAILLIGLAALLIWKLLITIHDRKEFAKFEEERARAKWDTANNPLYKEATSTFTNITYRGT

B1: Au-Cap-RGD nanoparticles (RGD nanoclusters): 5 nm gold nanoparticles modified with a mixture of Cap and Cap-RGD peptides (peptide)
peptide 1: Ac-CCVVVTGRGDSPSSK-OH
peptide 2: CCVVVT-OH
modifications: also: peptides attached to 5 nm gold nanoparticle via thiol/gold, mixture of Cap and Cap-RGD
IC50 level of cell adhesion inhibition, as equivalent RGD peptide (anti-adhesion assay, HeLa cells on vitronectin): 0.1 µM

B2: DNA/PEI-Au-Cap-RGD-ASA polyplex: DNA/poly(ethylene imine) polyplex covalently modified with Au-Cap-RGD-ASA nanoparticles (other)
peptide 1: Ac-CCVVVTGRGDSPSSK-OH
peptide 2: CCVVVT
modifications: also: peptides on gold nanoparticle via thiol/gold, azidosalicylic acid added, residue not given here, crosslinked to PEI, bound to DNA/PEI polyplex
Integrin Sensitivity Factor (ISF), ratio of the transfection level achieved with high and low αvβ3 density cells: 60 | luciferase expression in low αvβ3 density HeLa cells, against unmodified polyplexes: 5.4 fold | transfection efficiency in high αvβ3 density HeLa cells, against unmodified polyplexes: 35 fold | transfection efficiency, HeLahigh against HeLalow: 7 fold

Ac-GCGYGRGDSPSSK-NH2 [free RGD peptide (Ac-GCGYGRGDSPSSK-NH2)]
IC50 concentration at which 50% of cell adhesion is inhibited (anti-adhesion assay, HeLa cells on vitronectin): ~100 µM
